Assay results reported in patent publication US20240390433A1, “GENETICALLY MODIFIED BACILLUS SUBTILIS STRAIN AND USE AS A LIVE DELIVERY AND […]” (BiomEdit, LLC, priority 2021, published 2024).
Several values for one entry are separate records, joined by “and”; a condition that tells them apart may be missing. Identical values can stand only once. Entries after “also recorded” stand apart in the source; their conditions may differ.

Tests used:
[1] = target: recombinant NetB (wild type NetB), Clostridium perfringens (Clostridium perfringens); assay: cell-based or functional assay
[2] = tested on: Clostridium perfringens alpha toxin; assay type: biochemical

Molecule | lowest VHH concentration neutralizing NetB haemolysis [1] | neutralization of alpha toxin lecithinase activity (in words) [2] | residual lecithinase activity [2] | lecithinase activity neutralized [2] [%]
VHH antibody ENB-1D11 (VHH) VHH: EVQLVESGGGLVQTGGSLRLSCTASGTIDMTYGLIWYRQAPGKERELVASIRRDGRTNYADSVKGRFTISIDNAKNSIHLQMNSLKPDDTARYYCNSPYHALWGQGTQVTVSS | 1.25 µM and 0.625 µM | – | – | –
EAT-1F2 (protein, listed as Camelus sp., REGION 1..154: note = Description of sequence: EAT-1F2 antibody) VHH: EVQLVESGGGLVQAGGSLRLSCAGSGRTGSLYSMGWFRQAPGKEREFVAAITWRPSSTYYADSVKGRFTISRDDAKNTVYLQMNSLKPEDTAVYFCAARPRGGLSPTPQAYDYWGQGTQVTVSSAAASGSLEQKLISEEDLNGAAHHHHHHGAA | – | high neutralizing capacity; also recorded: unable to completely neutralize | about 25% | –
VHH antibody ENB-1A4 (VHH) VHH: EVQLVESGGGLVQAGGSLRLSCAASGSIFSTNVMGWYRQAPGKQREFVAGITIGGTARYPDSVKGRFTISRDNTQNTVYLQMNNLKPEDTAVYYCNAVLPSDQRRWSWGQGTQVTVSS | 1.25 µM and 0.625 µM | – | – | –
EAT-1G4 (protein, listed as Camelus sp., REGION 1..141: note = Description of sequence: EAT-1G4 antibody) VHH: EVQLVESGGGLVQPGGSLRLSCAASGSIATINDMGWFRQAPGKQRDWVATIVSDGSTAYADSVKGRFTISRDNAKNTVYLQMNSLKPEDTAVYYCSARRHYGQGTQVTVSSAAASGSLEQKLISEEDLNGAAHHHHHHGAA | – | less capable of neutralizing | – | 100
